# Test results published in US20240301067A1 (WUXI BIOLOGICS IRELAND, published 2024).
# T1: Mouse PD-1 on 293F cells (mouse, UniProt Q02242 25-288)
# T1 construct: whole, on cells; also called 293F.mPro1.B4; WBP305.293F.mPro1.B4
# T1 sequence (looked up): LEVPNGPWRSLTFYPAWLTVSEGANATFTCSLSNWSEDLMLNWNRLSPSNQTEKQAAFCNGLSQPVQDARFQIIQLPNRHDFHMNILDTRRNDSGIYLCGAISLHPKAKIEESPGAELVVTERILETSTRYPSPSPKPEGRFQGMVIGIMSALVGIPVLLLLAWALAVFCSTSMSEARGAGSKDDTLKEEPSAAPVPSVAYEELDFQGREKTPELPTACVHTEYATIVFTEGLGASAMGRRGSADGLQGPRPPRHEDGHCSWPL
# T2: Human ICOS extracellular domain, mFc tag (human, UniProt Q9Y6W8 21-140)
# T2 construct: extracellular domain; also called hICOS.ECD.mFc; not shown: mouse Fc tag at C-terminus
# T2 sequence (looked up): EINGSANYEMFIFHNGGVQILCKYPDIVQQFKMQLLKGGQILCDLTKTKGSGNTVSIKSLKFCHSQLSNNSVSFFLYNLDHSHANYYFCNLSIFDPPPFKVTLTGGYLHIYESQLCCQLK
# T3: Human BTLA extracellular domain, His (human, UniProt Q7Z6A9 31-157)
# T3 construct: extracellular domain; Bought; also called hBTLA.ECD.His; not shown: His tag
# T3 sequence (looked up): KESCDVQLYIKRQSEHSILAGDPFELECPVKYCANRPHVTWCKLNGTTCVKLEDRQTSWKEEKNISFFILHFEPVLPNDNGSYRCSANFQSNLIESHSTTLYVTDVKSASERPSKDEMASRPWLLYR
# How the values were obtained:
# [1] = target: T1, Mouse PD-1 on 293F cells; assay: FACS on 293F.mPro1.B4 cells
# Method: The cells 293F.mPro1.B4 (2×10⁵ cells/well) were incubated with various concentrations of anti-PD-1 antibodies (3-fold serially diluted from 133.3 nM to 0.008 nM) at 4° C. for 1 hour. After washing with 1×PBS/1% BSA, the secondary antibody PE-labeled goat anti-human IgG was applied and incubated with cells at 4° C. for 1 hour. Human IgG4 isotype antibody was used as negative control. The cells were then washed and re-suspended in 1×PBS/1% BSA. MFI of the cells was measured by a flow cytometer and analyzed by FlowJo (version 7.6.1).
# [2] = target: T4, Human PD-1 on CHO-S cells (human, UniProt Q15116 25-288); assay: FACS on CHO-S.hPro1.C6 cells
# T4 construct: whole, on cells; also called CHO-S.hPro1.C6; WBP305.CHO-S.hPro1.C6
# Method: The cells CHO-S.hPro1.C6 (2×10⁵ cells/well) were incubated with various concentrations of anti-PD-1 antibodies (4-fold serially diluted from 133.3 nM to 0.008 nM) at 4° C. for 1 hour. After washing with 1×PBS/1% BSA, the secondary antibody PE-labeled goat anti-human IgG was applied and incubated with cells at 4° C. for 1 hour. Anti-human PD-1 antibodies BMK1 and BMK3 were used as positive control. Human IgG4 isotype antibody was used as negative control. The cells were then washed and resuspended in 1×PBS/1% BSA. MFI of the cells was measured by a flow cytometer (BD) and analyzed by FlowJo (version 7.6.1).
# [3] = target: T1, Mouse PD-1 on 293F cells; assay: FACS competition on 293F.mPro1.B4 cells; competitor mProL1.ECD.mFc 5 µg/mL
# Method: The mouse PD-1 transfected 293F.mPro1.B4 cells were transferred into 96-well U-bottom plates at a density of 2×10⁵ cells/well. Various concentrations of anti-PD-1 antibodies (3-fold serially diluted from 1334 nM to 0.07 nM) and constant concentration of mouse Fc tagged mouse PD-L1 ECD protein (mProL1.ECD.mFc) (5 μg/mL) were pre-mixed and incubated with cells at 4° C. for 1 hour. After washing with 1×PBS/1% BSA, the secondary antibody PE-labeled goat anti-mouse IgG was applied and incubated with cells at 4° C. for 1 hour. The cells were then washed and resuspended in 1×PBS/1% BSA. MFI of the cells was measured by a flow cytometer and analyzed by FlowJo (version 7.6.1).
# [4] = target: T4, Human PD-1 on CHO-S cells; assay: FACS competition on CHO-S.hPro1.C6 cells; competitor hProL1.ECD.mFc 5 µg/mL
# Method: The human PD-1 transfected CHO-S.hPro1.C6 cells were transferred into 96-well U-bottom plates at a density of 2×10⁵ cells/well. Various concentrations of antibodies (4-fold serially diluted from 133.3 nM to 0.008 nM) and constant concentration of mouse Fc tagged PD-L1 ECD protein (hProL1.ECD.mFc) (5 μg/mL) were pre-mixed and incubated with cells at 4° C. for 1 hour. After washing with 1×PBS/1% BSA, the secondary antibody PE-labeled goat anti-mouse IgG was applied and incubated with cells at 4° C. for 1 hour. The cells were then washed and resuspended in 1×PBS/1% BSA. MFI of the cells was measured by a flow cytometer and analyzed by FlowJo (version 7.6.1).
# [5] = target: T5, Human CD28 extracellular domain, mFc tag (human, UniProt P10747 19-152); assay: ELISA, coated antigen 1 ug/mL, antibody 100 nM, HRP goat anti-human IgG
# T5 construct: extracellular domain; also called hCD28.ECD.mFc; not shown: mouse Fc tag at C-terminus
# Method: (§1) Plates were pre-coated with 1 μg/mL, 100 μL per well of hPD-1.ECD.mFc, hCD28.ECD.mFc, hCTLA-4.ECD.His, hICOS.ECD.mFc or hBTLA.ECD.His at 4° C. overnight. After 1-hour blocking using 200 μL of 1×PBS/2% BSA, testing antibodies were added to the plates at a concentration of 100 nM. The plates were incubated at ambient temperature for 1 hour. The binding of the antibodies to the immobilized proteins was detected by HRP-labeled goat anti-human IgG antibody. The color was developed by dispensing 100 μL of TMB substrate, and then stopped by 100 μL of 2N HCl. The absorbance was read at 450 nm and 540 nm using a microplate spectrophotometer.
# [6] = target: T2, Human ICOS extracellular domain, mFc tag; assay: as above
# Method: as §1
# [7] = target: T3, Human BTLA extracellular domain, His; assay: as above
# Method: as §1
# T4 sequence (Q15116 25-288): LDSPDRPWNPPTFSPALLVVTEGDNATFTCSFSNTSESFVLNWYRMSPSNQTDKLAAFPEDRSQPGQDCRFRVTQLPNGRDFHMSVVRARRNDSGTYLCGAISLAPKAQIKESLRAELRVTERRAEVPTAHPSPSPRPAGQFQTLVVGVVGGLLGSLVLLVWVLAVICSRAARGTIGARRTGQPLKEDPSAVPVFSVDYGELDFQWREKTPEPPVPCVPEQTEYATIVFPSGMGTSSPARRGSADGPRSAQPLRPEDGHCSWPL
# T5 sequence (P10747 19-152): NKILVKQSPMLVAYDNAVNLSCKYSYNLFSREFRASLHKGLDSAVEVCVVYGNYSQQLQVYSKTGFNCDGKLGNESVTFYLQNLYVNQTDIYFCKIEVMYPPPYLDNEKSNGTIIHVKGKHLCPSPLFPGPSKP
Binder,EC50 [1] [nM],EC50 [2] [nM],IC50 [3] [nM],IC50 [4] [nM],binding result [5],binding result [6],binding result [7]
"W3056-AP17R1-2H2-FC(IgG4.SP) (Fc fusion, VHH fused to Fc of human IgG4 S228P; also called W3056 lead parental antibody (VHH-Fc(hIgG4) fusion); not shown: Fc of human IgG4 (hIgG4.S228P)) QVQLVESGGGLVQPGGSLRLSCAASDSIDSLVNMGWYRQAPGKQRELVALIANYITHYADFVKGRFTISRDAAKNTVNLQMSSLKPEDTAVYYCYARNIIVDYWGQGTQVTVSS",4.77,1.87,22.1,1,no binding (tested: 100 nM),no binding (tested: 100 nM),no binding (tested: 100 nM)
"W3056-AP17R1-2H2-Z1-R1-14A1-FC(IgG4.SP) (Fc fusion, also called W3056 lead antibody (VHH-Fc(hIgG4) fusion); not shown: Fc of human IgG4 (hIgG4.S228P)) QVQLVESGGGVVQPGGSLRLSCAASDSIDSLVNMGWYRQAPGKQRELVALIATYITHYADFVKGRFTISRDNSKNTLYLQMNSLRAEDTAVYYCYARNIIVDYWGQGTLVTVSS",4.26,0.612,10.2,0.655,no binding (tested: 100 nM),no binding (tested: 100 nM),no binding (tested: 100 nM)
